Earlier results in publication PMC3901638.

Molecular target: PEDF-R (Homo sapiens) (UniProt Q96AD5)
Assay: Surface Plasmon Resonance

Sequence of UniProt Q96AD5 (Q96AD5 whole entry): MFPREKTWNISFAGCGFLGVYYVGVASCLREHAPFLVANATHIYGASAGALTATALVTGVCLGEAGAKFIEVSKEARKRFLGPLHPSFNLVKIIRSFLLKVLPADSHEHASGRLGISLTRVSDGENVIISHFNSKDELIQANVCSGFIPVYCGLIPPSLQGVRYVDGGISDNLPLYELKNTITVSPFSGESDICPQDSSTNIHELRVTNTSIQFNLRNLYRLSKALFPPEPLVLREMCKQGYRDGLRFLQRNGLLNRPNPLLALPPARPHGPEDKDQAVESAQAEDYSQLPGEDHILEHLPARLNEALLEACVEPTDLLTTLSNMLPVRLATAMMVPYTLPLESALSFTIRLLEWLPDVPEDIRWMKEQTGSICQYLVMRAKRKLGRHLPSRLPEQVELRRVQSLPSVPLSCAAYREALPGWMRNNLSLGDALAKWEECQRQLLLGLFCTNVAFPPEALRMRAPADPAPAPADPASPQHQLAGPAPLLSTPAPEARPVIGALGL

Kd: 3 nM
Substance: PEDF (from UniProt P36955)
